Source: publication PMC4865869

Tests used:
[1] = molecular target: GST-fused RasC (Dictyostelium) (UniProt P32253); test: pull-down; GFP-FRB/Kin^TOR with active GST-fused GTPase (GppNHp-loaded or constitutively active mutant), 25 ug of each, 50 mM Tris-Cl, 150 mM NaCl, 5 mM MgCl2, 1 mM beta-mercaptoethanol, pH 7.5; GSH resin; washes with 500 mM NaCl; GFP and GST immunoblotting
[2] = molecular target: constitutively active RasC mutant (RasC^CA, G62L) (Dictyostelium) (UniProt P32253); test: as above
[3] = molecular target: Rap1 pre-loaded with mGppNHp (GDI assay) (Dictyostelium) (UniProt P18613); test: guanine nucleotide dissociation inhibition (GDI) assay; Rap1 or RasG pre-loaded with fluorescent mGppNHp, excess unlabeled GppNHp, with or without 1 uM RIP3^RBD; kobs of fluorescence decay; without effector kobs Rap1 5.0 x 10^-5 s^-1, RasG 5.9 x 10^-5 s^-1
Sequence of UniProt P18613 (P18613 whole entry): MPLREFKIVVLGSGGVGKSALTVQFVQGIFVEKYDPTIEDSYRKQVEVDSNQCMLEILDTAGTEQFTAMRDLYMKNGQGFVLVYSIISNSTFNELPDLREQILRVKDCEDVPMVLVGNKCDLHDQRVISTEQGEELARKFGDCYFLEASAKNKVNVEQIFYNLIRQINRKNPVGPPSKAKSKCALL

binding efficiency (percent) [1]	binding efficiency (percent) [2]	kobs of mGppNHp dissociation from Rap1 with 1 uM RIP3^RBD [3]	Substance
9%	9%		GFP-fused TOR catalytic domain (FRB/Kin^TOR, aa 1820-2380) (from UniProt Q86C65 1820-2380) (domain or fragment)
		1e-07 s⁻¹	RIP3^RBD (aa 511-838) (domain or fragment)
